Assay results from patent US20250171562A1 (ALK ABELL, published 2025).
Values belong to the binder of their own block, whether it stands above or below them.

Biological target: T1, recombinant human IgE (human, UniProt P01854-1 1-428)
T1 construct: made in-house (ALK); preloaded on immobilised FcεRIα in the displacement ELISA
Assay: IgE-FcεRIα displacement ELISA
How it was run: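 sdAbs at pM–μM were incubated 1 h on preformed complexes of 13 ng/ml recombinant human IgE with avi-tag-biotinylated human FcεRIα captured on streptavidin.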

T1 sequence (P01854 other isoform, or with tags, fused parts or gaps): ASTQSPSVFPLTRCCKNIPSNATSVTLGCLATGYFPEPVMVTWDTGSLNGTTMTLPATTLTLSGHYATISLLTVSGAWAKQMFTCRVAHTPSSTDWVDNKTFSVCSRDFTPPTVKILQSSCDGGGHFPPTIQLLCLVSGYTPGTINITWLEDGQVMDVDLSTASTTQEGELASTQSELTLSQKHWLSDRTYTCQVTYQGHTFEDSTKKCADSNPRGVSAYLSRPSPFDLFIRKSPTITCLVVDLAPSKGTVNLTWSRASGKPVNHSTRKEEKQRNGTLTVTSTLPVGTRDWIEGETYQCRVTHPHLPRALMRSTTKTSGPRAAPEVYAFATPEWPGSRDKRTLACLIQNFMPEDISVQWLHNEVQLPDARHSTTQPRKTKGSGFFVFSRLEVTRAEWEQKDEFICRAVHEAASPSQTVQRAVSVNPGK

B1: CIgG4F4A1(RS) (Fc fusion)
chain 1: GPPCPPCPAPEFLGGPSVFLFPPKPKDTLMISRTPEVTCVVVDVSQEDPEVQFNWYVDGVEVHNAKTKPREEQFNSTYRVVSVLTVLHQDWLNGKEYKCKVSNKGLPSSIEKTISKAKGQPREPQVYTLPPCQEEMTKNQVSLWCLVKGFYPSDIAVEWESNGQPENNYKTTPPVLDSDGSFFLYSRLTVDKSRWQEGNVFSCSVMHEALHNHYTQKSLSLSLGKRSDVQLQESGGGLVQAGGSLRLSCAVSGLSFSSMGWFRQPPGKEREFVAAISLYSGSTYYADSVKGRFTISSDNAKSTVYLQMNSLKPEDAAVYFCAADRQRTWSTFYASRQATYNYWGQGTQVTVTS
chain 2: GPPCPPCPAPEFLGGPSVFLFPPKPKDTLMISRTPEVTCVVVDVSQEDPEVQFNWYVDGVEVHNAKTKPREEQFNSTYRVVSVLTVLHQDWLNGKEYKCKVSNKGLPSSIEKTISKAKGQPREPQVCTLPPSQEEMTKNQVSLSCAVKGFYPSDIAVEWESNGQPENNYKTTPPVLDSDGSFFLVSRLTVDKSRWQEGNVFSCSVMHEALHNHYTQKSLSLSLGKRSEVQLLESGGGLVQPGGSLRLSCAASGFTFGNYDMAWVRQAPGKRPEWVSSIDTGGDITHYADSVKGRFTISRDNAKNTLYLQMNSLRPEDTAVYWCATDEEYALGPNEFDYYGQGTLVTVSS
EC50: 90 nM
Max effect: 70%

B3: CIgG4F3A1(G4S)2 (Fc fusion)
chain 1: GPPCPPCPAPEFLGGPSVFLFPPKPKDTLMISRTPEVTCVVVDVSQEDPEVQFNWYVDGVEVHNAKTKPREEQFNSTYRVVSVLTVLHQDWLNGKEYKCKVSNKGLPSSIEKTISKAKGQPREPQVYTLPPCQEEMTKNQVSLWCLVKGFYPSDIAVEWESNGQPENNYKTTPPVLDSDGSFFLYSRLTVDKSRWQEGNVFSCSVMHEALHNHYTQKSLSLSLGKGGGGSGGGGSDVQLQESGGGLVQAGGSLKLSCAASRGSLSRWDVAWFRQAPGKERSFVTRISWSGTTSYYADAVKGRFAISRDNAKNTVYLQMNSLKPEDTAVYYCAVALYGNRGYYDVNAHSYWGQGTQVTVS
chain 2: GPPCPPCPAPEFLGGPSVFLFPPKPKDTLMISRTPEVTCVVVDVSQEDPEVQFNWYVDGVEVHNAKTKPREEQFNSTYRVVSVLTVLHQDWLNGKEYKCKVSNKGLPSSIEKTISKAKGQPREPQVCTLPPSQEEMTKNQVSLSCAVKGFYPSDIAVEWESNGQPENNYKTTPPVLDSDGSFFLVSRLTVDKSRWQEGNVFSCSVMHEALHNHYTQKSLSLSLGKGGGGSGGGGSEVQLLESGGGLVQPGGSLRLSCAASGFTFGNYDMAWVRQAPGKRPEWVSSIDTGGDITHYADSVKGRFTISRDNAKNTLYLQMNSLRPEDTAVYWCATDEEYALGPNEFDYYGQGTLVTVSS
EC50: 41 nM
Max effect: 80%

B6: NIgG4F4A1(G4S)1 (Fc fusion)
chain 1: DVQLQESGGGLVQAGGSLRLSCAVSGLSFSSMGWFRQPPGKEREFVAAISLYSGSTYYADSVKGRFTISSDNAKSTVYLQMNSLKPEDAAVYFCAADRQRTWSTFYASRQATYNYWGQGTQVTVTSGGGGSGPPCPPCPAPEFLGGPSVFLFPPKPKDTLMISRTPEVTCVVVDVSQEDPEVQFNWYVDGVEVHNAKTKPREEQFNSTYRVVSVLTVLHQDWLNGKEYKCKVSNKGLPSSIEKTISKAKGQPREPQVYTLPPCQEEMTKNQVSLWCLVKGFYPSDIAVEWESNGQPENNYKTTPPVLDSDGSFFLYSRLTVDKSRWQEGNVFSCSVMHEALHNHYTQKSLSLSLGK
chain 2: EVQLLESGGGLVQPGGSLRLSCAASGFTFGNYDMAWVRQAPGKRPEWVSSIDTGGDITHYADSVKGRFTISRDNAKNTLYLQMNSLRPEDTAVYWCATDEEYALGPNEFDYYGQGTLVTVSSGGGGSGPPCPPCPAPEFLGGPSVFLFPPKPKDTLMISRTPEVTCVVVDVSQEDPEVQFNWYVDGVEVHNAKTKPREEQFNSTYRVVSVLTVLHQDWLNGKEYKCKVSNKGLPSSIEKTISKAKGQPREPQVCTLPPSQEEMTKNQVSLSCAVKGFYPSDIAVEWESNGQPENNYKTTPPVLDSDGSFFLVSRLTVDKSRWQEGNVFSCSVMHEALHNHYTQKSLSLSLGK
Max effect: > 95%

B7: CIgG4F3A1(G4S)3 (Fc fusion)
chain 1: GPPCPPCPAPEFLGGPSVFLFPPKPKDTLMISRTPEVTCVVVDVSQEDPEVQFNWYVDGVEVHNAKTKPREEQFNSTYRVVSVLTVLHQDWLNGKEYKCKVSNKGLPSSIEKTISKAKGQPREPQVYTLPPCQEEMTKNQVSLWCLVKGFYPSDIAVEWESNGQPENNYKTTPPVLDSDGSFFLYSRLTVDKSRWQEGNVFSCSVMHEALHNHYTQKSLSLSLGKGGGGSGGGGSGGGGSDVQLQESGGGLVQAGGSLKLSCAASRGSLSRWDVAWFRQAPGKERSFVTRISWSGTTSYYADAVKGRFAISRDNAKNTVYLQMNSLKPEDTAVYYCAVALYGNRGYYDVNAHSYWGQGTQVTVS
chain 2: GPPCPPCPAPEFLGGPSVFLFPPKPKDTLMISRTPEVTCVVVDVSQEDPEVQFNWYVDGVEVHNAKTKPREEQFNSTYRVVSVLTVLHQDWLNGKEYKCKVSNKGLPSSIEKTISKAKGQPREPQVCTLPPSQEEMTKNQVSLSCAVKGFYPSDIAVEWESNGQPENNYKTTPPVLDSDGSFFLVSRLTVDKSRWQEGNVFSCSVMHEALHNHYTQKSLSLSLGKGGGGSGGGGSGGGGSEVQLLESGGGLVQPGGSLRLSCAASGFTFGNYDMAWVRQAPGKRPEWVSSIDTGGDITHYADSVKGRFTISRDNAKNTLYLQMNSLRPEDTAVYWCATDEEYALGPNEFDYYGQGTLVTVSS
EC50: 24 nM
Max effect: 90%

B8: CIgG4F3A1(G4S)1 (Fc fusion)
chain 1: GPPCPPCPAPEFLGGPSVFLFPPKPKDTLMISRTPEVTCVVVDVSQEDPEVQFNWYVDGVEVHNAKTKPREEQFNSTYRVVSVLTVLHQDWLNGKEYKCKVSNKGLPSSIEKTISKAKGQPREPQVYTLPPCQEEMTKNQVSLWCLVKGFYPSDIAVEWESNGQPENNYKTTPPVLDSDGSFFLYSRLTVDKSRWQEGNVFSCSVMHEALHNHYTQKSLSLSLGKGGGGSDVQLQESGGGLVQAGGSLKLSCAASRGSLSRWDVAWFRQAPGKERSFVTRISWSGTTSYYADAVKGRFAISRDNAKNTVYLQMNSLKPEDTAVYYCAVALYGNRGYYDVNAHSYWGQGTQVTVS
chain 2: GPPCPPCPAPEFLGGPSVFLFPPKPKDTLMISRTPEVTCVVVDVSQEDPEVQFNWYVDGVEVHNAKTKPREEQFNSTYRVVSVLTVLHQDWLNGKEYKCKVSNKGLPSSIEKTISKAKGQPREPQVCTLPPSQEEMTKNQVSLSCAVKGFYPSDIAVEWESNGQPENNYKTTPPVLDSDGSFFLVSRLTVDKSRWQEGNVFSCSVMHEALHNHYTQKSLSLSLGKGGGGSEVQLLESGGGLVQPGGSLRLSCAASGFTFGNYDMAWVRQAPGKRPEWVSSIDTGGDITHYADSVKGRFTISRDNAKNTLYLQMNSLRPEDTAVYWCATDEEYALGPNEFDYYGQGTLVTVSS
EC50: 1000 nM
Max effect: 50%

More lines, now with the values ahead:

Max effect: > 95%
B2: NIgG4F4A1(G4S)3 (Fc fusion)
chain 1: DVQLQESGGGLVQAGGSLRLSCAVSGLSFSSMGWFRQPPGKEREFVAAISLYSGSTYYADSVKGRFTISSDNAKSTVYLQMNSLKPEDAAVYFCAADRQRTWSTFYASRQATYNYWGQGTQVTVTSGGGGSGGGGSGGGGSGPPCPPCPAPEFLGGPSVFLFPPKPKDTLMISRTPEVTCVVVDVSQEDPEVQFNWYVDGVEVHNAKTKPREEQFNSTYRVVSVLTVLHQDWLNGKEYKCKVSNKGLPSSIEKTISKAKGQPREPQVYTLPPCQEEMTKNQVSLWCLVKGFYPSDIAVEWESNGQPENNYKTTPPVLDSDGSFFLYSRLTVDKSRWQEGNVFSCSVMHEALHNHYTQKSLSLSLGK
chain 2: EVQLLESGGGLVQPGGSLRLSCAASGFTFGNYDMAWVRQAPGKRPEWVSSIDTGGDITHYADSVKGRFTISRDNAKNTLYLQMNSLRPEDTAVYWCATDEEYALGPNEFDYYGQGTLVTVSSGGGGSGGGGSGGGGSGPPCPPCPAPEFLGGPSVFLFPPKPKDTLMISRTPEVTCVVVDVSQEDPEVQFNWYVDGVEVHNAKTKPREEQFNSTYRVVSVLTVLHQDWLNGKEYKCKVSNKGLPSSIEKTISKAKGQPREPQVCTLPPSQEEMTKNQVSLSCAVKGFYPSDIAVEWESNGQPENNYKTTPPVLDSDGSFFLVSRLTVDKSRWQEGNVFSCSVMHEALHNHYTQKSLSLSLGK

Max effect: > 95%
B4: NIgG4F4A1(G4S)2 (Fc fusion)
chain 1: DVQLQESGGGLVQAGGSLRLSCAVSGLSFSSMGWFRQPPGKEREFVAAISLYSGSTYYADSVKGRFTISSDNAKSTVYLQMNSLKPEDAAVYFCAADRQRTWSTFYASRQATYNYWGQGTQVTVTSGGGGSGGGGSGPPCPPCPAPEFLGGPSVFLFPPKPKDTLMISRTPEVTCVVVDVSQEDPEVQFNWYVDGVEVHNAKTKPREEQFNSTYRVVSVLTVLHQDWLNGKEYKCKVSNKGLPSSIEKTISKAKGQPREPQVYTLPPCQEEMTKNQVSLWCLVKGFYPSDIAVEWESNGQPENNYKTTPPVLDSDGSFFLYSRLTVDKSRWQEGNVFSCSVMHEALHNHYTQKSLSLSLGK
chain 2: EVQLLESGGGLVQPGGSLRLSCAASGFTFGNYDMAWVRQAPGKRPEWVSSIDTGGDITHYADSVKGRFTISRDNAKNTLYLQMNSLRPEDTAVYWCATDEEYALGPNEFDYYGQGTLVTVSSGGGGSGGGGSGPPCPPCPAPEFLGGPSVFLFPPKPKDTLMISRTPEVTCVVVDVSQEDPEVQFNWYVDGVEVHNAKTKPREEQFNSTYRVVSVLTVLHQDWLNGKEYKCKVSNKGLPSSIEKTISKAKGQPREPQVCTLPPSQEEMTKNQVSLSCAVKGFYPSDIAVEWESNGQPENNYKTTPPVLDSDGSFFLVSRLTVDKSRWQEGNVFSCSVMHEALHNHYTQKSLSLSLGK

Max effect: > 95%
B5: NIgG4F4A1(RS) (Fc fusion)
chain 1: DVQLQESGGGLVQAGGSLRLSCAVSGLSFSSMGWFRQPPGKEREFVAAISLYSGSTYYADSVKGRFTISSDNAKSTVYLQMNSLKPEDAAVYFCAADRQRTWSTFYASRQATYNYWGQGTQVTVTSRSGPPCPPCPAPEFLGGPSVFLFPPKPKDTLMISRTPEVTCVVVDVSQEDPEVQFNWYVDGVEVHNAKTKPREEQFNSTYRVVSVLTVLHQDWLNGKEYKCKVSNKGLPSSIEKTISKAKGQPREPQVYTLPPCQEEMTKNQVSLWCLVKGFYPSDIAVEWESNGQPENNYKTTPPVLDSDGSFFLYSRLTVDKSRWQEGNVFSCSVMHEALHNHYTQKSLSLSLGK
chain 2: EVQLLESGGGLVQPGGSLRLSCAASGFTFGNYDMAWVRQAPGKRPEWVSSIDTGGDITHYADSVKGRFTISRDNAKNTLYLQMNSLRPEDTAVYWCATDEEYALGPNEFDYYGQGTLVTVSSRSGPPCPPCPAPEFLGGPSVFLFPPKPKDTLMISRTPEVTCVVVDVSQEDPEVQFNWYVDGVEVHNAKTKPREEQFNSTYRVVSVLTVLHQDWLNGKEYKCKVSNKGLPSSIEKTISKAKGQPREPQVCTLPPSQEEMTKNQVSLSCAVKGFYPSDIAVEWESNGQPENNYKTTPPVLDSDGSFFLVSRLTVDKSRWQEGNVFSCSVMHEALHNHYTQKSLSLSLGK
